Reference: the RNAGym collection of RNA variant scans (doi:10.1093/molbev/msab373)

B1: Azoarcus group I ribozyme (parent)
chain: GUGCCUUGCGCCGGGAAACCACGCAAGGGAUGGUGUCAAAUUCGGCGAAACCUAAGCGCCCGCCCGGGCGUAUGGCAACGCCGAGCCAAGCUUCGGCGCCUGCGCCGAUGAAGGUGUAGAGACUAGACGGCACCCACCUAAGGCAAACGCUAUGGUGAAGGCAUAGUCCAGGGAGUGGCGAAAGUCACACAAACCGG

Variants of: B1
Test: reverse-splicing fitness (ratio to wild type); higher = more active; in vitro selection; Mg2+ level not given
Summary of the method: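 An in vitro group I ribozyme library with randomized positions was T7-transcribed and gel-purified. In triplicate, 10 pmol RNA in EPPS pH 7.5 was reacted with 50 pmoles of a 30-nt RNA substrate for 1 h at 37 °C across several added MgCl2 levels (1–48 mM), then stopped with EDTA. Products were reverse transcribed from a substrate-complementary primer, PCR-amplified and sequenced (HiSeq 4000). Fitness is a variant's read proportion after selection over that before, normalised to wild type.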

Which reverse-splicing fitness does the source give for C82U A111G U176C here?
The reverse-splicing fitness was 0.274.

For C82U A111G U176G, which reverse-splicing fitness is on record?
The reverse-splicing fitness was 0.0517.

Which reverse-splicing fitness does the source give for C82U A111U here?
The reverse-splicing fitness was 0.327.

Which reverse-splicing fitness does the source give for C82U A111U A120C here?
Its reverse-splicing fitness is 0.0288.

Which reverse-splicing fitness does the source give for C82U A111U A120C A145C here?
Its reverse-splicing fitness is 0.0238.

Which reverse-splicing fitness does the source give for C82U A111U A120C A145C C150A here?
The reverse-splicing fitness was 0.00788.

With C82U A111U A120C A145C C150A C169A as the variant, how does the reverse-splicing fitness read?
Its reverse-splicing fitness is 0.00749.

With C82U A111U A120C A145C C150A C169A U176A as the variant, how does the reverse-splicing fitness read?
The reverse-splicing fitness was 0.00878.

For C82U A111U A120C A145C C150A C169A U176C, which reverse-splicing fitness is on record?
Its reverse-splicing fitness is 0.0057.

With C82U A111U A120C A145C C150A C169A U176G as the variant, how does the reverse-splicing fitness read?
Its reverse-splicing fitness is 0.00538.

With C82U A111U A120C A145C C150A C169G as the variant, how does the reverse-splicing fitness read?
Its reverse-splicing fitness is 0.00632.

Which reverse-splicing fitness does the source give for C82U A111U A120C A145C C150A C169G U176A here?
The reverse-splicing fitness was 0.0195.

For C82U A111U A120C A145C C150A C169G U176C, which reverse-splicing fitness is on record?
The reverse-splicing fitness was 0.0108.

For C82U A111U A120C A145C C150A C169G U176G, which reverse-splicing fitness is on record?
The reverse-splicing fitness was 0.00543.

Which reverse-splicing fitness does the source give for C82U A111U A120C A145C C150A C169U here?
Its reverse-splicing fitness is 0.0102.

Which reverse-splicing fitness does the source give for C82U A111U A120C A145C C150A C169U U176A here?
The reverse-splicing fitness was 0.0149.

For C82U A111U A120C A145C C150A C169U U176C, which reverse-splicing fitness is on record?
The reverse-splicing fitness was 0.0112.

With C82U A111U A120C A145C C150A C169U U176G as the variant, how does the reverse-splicing fitness read?
Its reverse-splicing fitness is 0.00541.

With C82U A111U A120C A145C C150A U176A as the variant, how does the reverse-splicing fitness read?
Its reverse-splicing fitness is 0.00819.

For C82U A111U A120C A145C C150A U176C, which reverse-splicing fitness is on record?
Its reverse-splicing fitness is 0.00753.

With C82U A111U A120C A145C C150A U176G as the variant, how does the reverse-splicing fitness read?
The reverse-splicing fitness was 0.00471.

With C82U A111U A120C A145C C150G as the variant, how does the reverse-splicing fitness read?
Its reverse-splicing fitness is 0.00726.

For C82U A111U A120C A145C C150G C169A, which reverse-splicing fitness is on record?
The reverse-splicing fitness was 0.00832.

Which reverse-splicing fitness does the source give for C82U A111U A120C A145C C150G C169A U176A here?
The reverse-splicing fitness was 0.00641.

Which reverse-splicing fitness does the source give for C82U A111U A120C A145C C150G C169A U176C here?
The reverse-splicing fitness was 0.00591.

Which reverse-splicing fitness does the source give for C82U A111U A120C A145C C150G C169A U176G here?
Its reverse-splicing fitness is 0.00527.

Which reverse-splicing fitness does the source give for C82U A111U A120C A145C C150G C169G here?
The reverse-splicing fitness was 0.00637.

For C82U A111U A120C A145C C150G C169G U176A, which reverse-splicing fitness is on record?
The reverse-splicing fitness was 0.00839.

With C82U A111U A120C A145C C150G C169G U176C as the variant, how does the reverse-splicing fitness read?
The reverse-splicing fitness was 0.00632.

For C82U A111U A120C A145C C150G C169G U176G, which reverse-splicing fitness is on record?
The reverse-splicing fitness was 0.0044.

For C82U A111U A120C A145C C150G C169U, which reverse-splicing fitness is on record?
Its reverse-splicing fitness is 0.00848.

With C82U A111U A120C A145C C150G C169U U176A as the variant, how does the reverse-splicing fitness read?
Its reverse-splicing fitness is 0.0108.

Which reverse-splicing fitness does the source give for C82U A111U A120C A145C C150G C169U U176C here?
The reverse-splicing fitness was 0.0116.

For C82U A111U A120C A145C C150G C169U U176G, which reverse-splicing fitness is on record?
The reverse-splicing fitness was 0.00477.

For C82U A111U A120C A145C C150G U176A, which reverse-splicing fitness is on record?
The reverse-splicing fitness was 0.00494.

Which reverse-splicing fitness does the source give for C82U A111U A120C A145C C150G U176C here?
Its reverse-splicing fitness is 0.00663.

With C82U A111U A120C A145C C150G U176G as the variant, how does the reverse-splicing fitness read?
Its reverse-splicing fitness is 0.00237.

With C82U A111U A120C A145C C150U as the variant, how does the reverse-splicing fitness read?
The reverse-splicing fitness was 0.0119.

With C82U A111U A120C A145C C150U C169A as the variant, how does the reverse-splicing fitness read?
Its reverse-splicing fitness is 0.00709.

For C82U A111U A120C A145C C150U C169A U176A, which reverse-splicing fitness is on record?
The reverse-splicing fitness was 0.0088.

Which reverse-splicing fitness does the source give for C82U A111U A120C A145C C150U C169A U176C here?
Its reverse-splicing fitness is 0.00517.

With C82U A111U A120C A145C C150U C169A U176G as the variant, how does the reverse-splicing fitness read?
Its reverse-splicing fitness is 0.00569.

With C82U A111U A120C A145C C150U C169G as the variant, how does the reverse-splicing fitness read?
The reverse-splicing fitness was 0.00639.

Which reverse-splicing fitness does the source give for C82U A111U A120C A145C C150U C169G U176A here?
Its reverse-splicing fitness is 0.0175.

For C82U A111U A120C A145C C150U C169G U176C, which reverse-splicing fitness is on record?
Its reverse-splicing fitness is 0.00936.

For C82U A111U A120C A145C C150U C169G U176G, which reverse-splicing fitness is on record?
The reverse-splicing fitness was 0.00538.

Which reverse-splicing fitness does the source give for C82U A111U A120C A145C C150U C169U here?
Its reverse-splicing fitness is 0.00899.

Which reverse-splicing fitness does the source give for C82U A111U A120C A145C C150U C169U U176A here?
Its reverse-splicing fitness is 0.015.

For C82U A111U A120C A145C C150U C169U U176C, which reverse-splicing fitness is on record?
The reverse-splicing fitness was 0.0108.

With C82U A111U A120C A145C C150U C169U U176G as the variant, how does the reverse-splicing fitness read?
Its reverse-splicing fitness is 0.00464.

Which reverse-splicing fitness does the source give for C82U A111U A120C A145C C150U U176A here?
Its reverse-splicing fitness is 0.00801.

Which reverse-splicing fitness does the source give for C82U A111U A120C A145C C150U U176C here?
The reverse-splicing fitness was 0.00856.

With C82U A111U A120C A145C C150U U176G as the variant, how does the reverse-splicing fitness read?
Its reverse-splicing fitness is 0.00423.

For C82U A111U A120C A145C C169A, which reverse-splicing fitness is on record?
Its reverse-splicing fitness is 0.0065.

Which reverse-splicing fitness does the source give for C82U A111U A120C A145C C169A U176A here?
The reverse-splicing fitness was 0.00868.

For C82U A111U A120C A145C C169A U176C, which reverse-splicing fitness is on record?
Its reverse-splicing fitness is 0.00567.

Which reverse-splicing fitness does the source give for C82U A111U A120C A145C C169A U176G here?
The reverse-splicing fitness was 0.00392.

Which reverse-splicing fitness does the source give for C82U A111U A120C A145C C169G here?
The reverse-splicing fitness was 0.00709.

With C82U A111U A120C A145C C169G U176A as the variant, how does the reverse-splicing fitness read?
Its reverse-splicing fitness is 0.0202.

Which reverse-splicing fitness does the source give for C82U A111U A120C A145C C169G U176C here?
Its reverse-splicing fitness is 0.0105.

Which reverse-splicing fitness does the source give for C82U A111U A120C A145C C169G U176G here?
The reverse-splicing fitness was 0.00439.

For C82U A111U A120C A145C C169U, which reverse-splicing fitness is on record?
The reverse-splicing fitness was 0.011.

For C82U A111U A120C A145C C169U U176A, which reverse-splicing fitness is on record?
Its reverse-splicing fitness is 0.013.

With C82U A111U A120C A145C C169U U176C as the variant, how does the reverse-splicing fitness read?
Its reverse-splicing fitness is 0.0109.

For C82U A111U A120C A145C C169U U176G, which reverse-splicing fitness is on record?
The reverse-splicing fitness was 0.00412.

Which reverse-splicing fitness does the source give for C82U A111U A120C A145C U176A here?
The reverse-splicing fitness was 0.0125.

For C82U A111U A120C A145C U176C, which reverse-splicing fitness is on record?
Its reverse-splicing fitness is 0.0132.

With C82U A111U A120C A145C U176G as the variant, how does the reverse-splicing fitness read?
The reverse-splicing fitness was 0.00539.

For C82U A111U A120C A145G, which reverse-splicing fitness is on record?
The reverse-splicing fitness was 0.03.

For C82U A111U A120C A145G C150A, which reverse-splicing fitness is on record?
The reverse-splicing fitness was 0.0116.

Which reverse-splicing fitness does the source give for C82U A111U A120C A145G C150A C169A here?
The reverse-splicing fitness was 0.0103.

Which reverse-splicing fitness does the source give for C82U A111U A120C A145G C150A C169A U176A here?
Its reverse-splicing fitness is 0.0207.

Which reverse-splicing fitness does the source give for C82U A111U A120C A145G C150A C169A U176C here?
Its reverse-splicing fitness is 0.0189.

With C82U A111U A120C A145G C150A C169A U176G as the variant, how does the reverse-splicing fitness read?
Its reverse-splicing fitness is 0.0059.

With C82U A111U A120C A145G C150A C169G as the variant, how does the reverse-splicing fitness read?
The reverse-splicing fitness was 0.00791.

Which reverse-splicing fitness does the source give for C82U A111U A120C A145G C150A C169G U176A here?
Its reverse-splicing fitness is 0.0169.

For C82U A111U A120C A145G C150A C169G U176C, which reverse-splicing fitness is on record?
Its reverse-splicing fitness is 0.0229.

For C82U A111U A120C A145G C150A C169G U176G, which reverse-splicing fitness is on record?
The reverse-splicing fitness was 0.00516.

With C82U A111U A120C A145G C150A C169U as the variant, how does the reverse-splicing fitness read?
The reverse-splicing fitness was 0.0104.

For C82U A111U A120C A145G C150A C169U U176A, which reverse-splicing fitness is on record?
Its reverse-splicing fitness is 0.0148.

For C82U A111U A120C A145G C150A C169U U176C, which reverse-splicing fitness is on record?
The reverse-splicing fitness was 0.0167.

With C82U A111U A120C A145G C150A C169U U176G as the variant, how does the reverse-splicing fitness read?
The reverse-splicing fitness was 0.00615.

For C82U A111U A120C A145G C150A U176A, which reverse-splicing fitness is on record?
The reverse-splicing fitness was 0.0105.
